The target in assay [1] is DR4-Ig (death receptor 4 / TRAIL-R1, Ig fusion protein) (UniProt O00220).
For assay [2] the target is unchanged. The source holds these as a separate data set.
For assay [3], the target named is rhTRAIL-C3 (TRAIL G131R/N199R/K201H mutant) (human) (UniProt P50591). Kind of assay: SEC.

From publication PMC4394230 come the findings set out here.

UniProt O00220, sequence (O00220 24-239): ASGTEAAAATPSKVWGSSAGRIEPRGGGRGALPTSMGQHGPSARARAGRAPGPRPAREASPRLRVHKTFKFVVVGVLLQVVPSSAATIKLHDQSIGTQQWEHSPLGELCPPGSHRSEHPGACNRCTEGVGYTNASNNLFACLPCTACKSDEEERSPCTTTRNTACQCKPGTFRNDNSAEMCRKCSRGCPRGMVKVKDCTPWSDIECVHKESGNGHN

As a reminder, the stoichiometry N is the number of molecules, sites or subunits per partner or assembly. In assay [1], “rhTRAIL-C3 (TRAIL G131R/N199R/K201H mutant) (from UniProt P50591 1-281) (ligand)” showed an ED50 of apoptosis induction (annexin V) in DR4-responsive EM-2 cells, 24 hrs of 3.78 ng/mL. For the same substance, the level of cell death in HL-60 cells (100 ng/ml, TMRE, 12 hrs) in assay [2] came out at 67%. The stoichiometry N in assay [3] turned out to be 3.
